Here are results for one molecule from patent publication US11584938B2, “Plant EPSPS mutant containing L195P and S247G mutations and encoding gene and use thereof” (GEVOTO LLC, priority 2017, dated 2023).

This assay deals with transgenic rice plants. The assay is described as follows: glyphosate resistance of the EPSPS mutant in transgenic rice plants sprayed with Roundup 41% ammonium glyphosate. It is filed as in vivo, rice (Nipponbare). The gist of the method: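 EPSPS mutant genes were cloned into pGVP1 and introduced into Nipponbare rice embryo-derived calluses via Agrobacterium EHA105 (OD 0.2, 10 min infection, 2–3 days co-culture at 25 °C in the dark). Calluses went through recovery, two 14-day screening rounds at 30 °C, two differentiation rounds and rooting to regenerate transgenic plants.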

[1] abbreviates: 1× dosage 1060 g/hectare glyphosate sprayed, recorded on 10th day.
The mark [2] stands for this setting: 2× dosage 2120 g/hectare sprayed to plants surviving 1×, recorded 10 days later.
Where [3] appears, read: 5× dosage 5300 g/hectare sprayed to plants surviving 2×, recorded 10 days later.
Setting [4] is: 20× dosage 21200 g/hectare sprayed to plants surviving 5×, recorded 10 days later.

Values joined by “and” are separate entries in the source; they are usually repeats but may differ in a detail not shown here. Equal values may be shown once.

B1: R6: rice EPSPS mutant, SEQ ID NO: 40, mutations S267(247)G, L214(195)P and P116(101)S (protein)
chain: MASNAAAAAAKAEEIVLQPIREISGAVQLPGSKSLSNRILLLSALSEGTTVVDNLLNSEDVHYMLEALKALGLSVEADKVAKRAVVVGCGGKFPVEKDAKEEVQLFLGNAGTAMRSLTAAVTAAGGNATYVLDGVPRMRERPIGDLVVGLKQLGADVDCFLGTECPPVRVKGIGGLPGGKVKLSGSISSQYLSALLMAAPLALGDVEIEIIDKPISIPYVEMTLRLMERFGVKAEHSDSWDRFYIKGGQKYKSPGNAYVEGDASSAGYFLAGAAITGGTVTVQGCGTTSLQGDVKFAEVLEMMGAKVTWTDTSVTVTGPPREPYGKKHLKAVDVNMNKMPDVAMTLAVVALFADGPTAIRDVASWRVKETERMVAIRTELTKLGASVEEGPDYCIITPPEKLNITAIDTYDDHRMAMAFSLAACADVPVTIRDPGCTRKTFPNYFDVLSTFVRN
With B1, under setting [1], the “%++&+++ (percentage of plant having medium and high glyphosate resistance to the total number of plants observed)” value turned out to be 70.0%; the “number of plants denoted by + (low glyphosate resistance)” value (“number … (low glyphosate resistance)” below) is 7; the “number of plants denoted by ++ (medium glyphosate resistance)” value (“number … (medium glyphosate resistance)” below) was found to be 3; the “number of plants denoted by +++ (high glyphosate resistance)” value (“number of plants denoted by +++” below) is listed as 18. The “number of plants denoted by − (no glyphosate resistance)” value (shortened to “number … (no glyphosate resistance)”) under setting [1] amounted to 2. Further, the “glyphosate resistance / survival of the rice transformed by the EPSPS, in words” value (1× glyphosate dosage) was “had relatively high resistance to glyphosate”. In addition, under setting [2], the “number … (low glyphosate resistance)” value stood at 3, the “number … (medium glyphosate resistance)” value came to 1, the “number of plants denoted by +++” value was determined as 18 and the “number … (no glyphosate resistance)” value stood at 8. The “glyphosate resistance / survival of the rice transformed by the EPSPS, in words” value (2× glyphosate dosage) is recorded as “had relatively high resistance to glyphosate”. Besides, under setting [3], the “&++&+++ (percentage of plant having medium and high glyphosate resistance to the total number of plants observed)” value is on record as 63.3%; the “number … (low glyphosate resistance)” value worked out at 0; the “number … (medium glyphosate resistance)” value amounted to 6; the “number of plants denoted by +++” value was 13. Moreover, under setting [3], the “number … (no glyphosate resistance)” value is 11. Under setting [4], the “&++&+++ (percentage of plant having medium and high glyphosate resistance to the total number of plants observed)” value is 63.38% and 63.3%; the “number … (low glyphosate resistance)” value is given as 0; the “number … (medium glyphosate resistance)” value was 11; the “number of plants denoted by +++” value was found to be 8. Under setting [4], the “number … (no glyphosate resistance)” value was 11.
